This is an account of results in patent US10456446B2, “Use of human small leucine zipper protein in osteogenesis procedure” (Korea University Research and Business Foundation, priority 2013, dated 2019).

A short description of series [1]: Solubility in saline or buffer solution. The series is classed as physicochemical.
Another series has as its target T1, HDAC3 (Homo sapiens, UniProt O15379).
T1 construct: expressed in transfected cells; host or cells: 293T
The series can be described thus: GST pull-down of sLZIP with HDAC3 in 293T cells. The series is classed as binding. The procedure:
293T cells were obtained and washed with cold PBS. The cells were re-suspended in an IP lysis buffer [25 mM of Tris-HCl (pH 7.4), 150 mM of NaCl, 1 mM of EDTA, 1% NP-40 and 5% glycerol, and a protease inhibitor]. A suspension was centrifuged at 16,000×g for 20 minutes at 4° C. Supernatants were collected and incubated with 0.5 μg of appropriate antibodies and 25 μl of protein A/G-agarose or a GST Sepharose 4B bead for 24 hours at 4° C. A protein complex was centrifuged at 1,000×g with a cold IP lysis buffer for 1 minute and washed five times. The final pellet was re-suspended in 50 μl of an SDS-sample buffer containing 5% β-mercaptoethanol and heated for 10 minutes at 100° C. A protein sample was isolated in SDS-PAGE (8 to 10%) and transferred to nitrocellulose membranes. Co-precipitated proteins were detected according to western blotting using specific antibodies.
For this purpose, 293T cells were transiently transfected with PPARγ2 (0.5 μg), β-galactosidase (0.1 μg), FABP4-Luc reporter genes (0.2 μg) and sLZIP (0.1 μg). […] A promoter activity was measured according to luciferase analysis. […] After the transfection, the cells were stimulated with or without 10 nM of RZD, and a promoter activity was measured (FIG. 4B). […] GFP-sLZIP expression constructs were expressed in C3H10T1/2 cells, rabbit anti-HDAC3 antibodies and Texas Red-labeled anti-rabbit antibodies were used and analysis was performed under a fluorescence microscope. […] A protein complex was analyzed in SDS-PAGE, and anti-GST and anti-Flag antibodies were used for immunoblotting (FIG. 4E). *, P<0.05; **, P<0.01
For this purpose, 293T cells were transfected with GST-PPARγ2 and Flag-sLZIP and were treated or not treated with 10 nM of RZD for 24 hours. […] A protein complex was analyzed in SDS-PAGE, and immunoblotted with anti-GST and anti-Flag antibodies. […] The cell lysates were GST pull-down analyzed (FIG. 5C). […] The cell lysates were GST pull-down analyzed (FIG. 5D). […] A protein complex was analyzed in SDS-PAGE, and then immunoblotted with anti-NCoR1 and anti-Flag antibodies (FIG. 5E). […]

For the next series, the system named is ATDC5 cells. The series can be described thus: Chondrocyte differentiation marker mRNA in ATDC5 cells, RT-PCR and real-time PCR. It is filed as cell-based. As to conditions: sLZIP 0.1 μg to 0.5 μg, in a reaction with insulin. The procedure: According to instructions of the manufacturer, a TRIzol reagent (Invitrogen, Carlsbad, Calif.) was added to directly lyse cells in a culture dish. Accupower RT PreMix (BioNeer, Daejeon, Korea) was used to synthesize cDNA from 2 μg of total RNA. A reaction was performed for 60 minutes at 42° C. and for 5 minutes at 94° C. PCR amplification was performed using oligomers listed in Table 2 and a Hipi PCR Mix Kit (ELPIS). As an internal control group, GAPDH was amplified. A PCR product was subjected to electrophoresis in 1-2% (w/v) agarose gel containing 0.5 μg/mL ethidium bromide. A size of the PCR product was measured by comparing it with 1 kb DNA ladder marker (Invitrogen). An intensity of bands amplified according to RT-PCR was analyzed using MultiImage™ Light Cabinet (version 5.5, Alpha Innotech Corp., San Leandro, Calif.).
Real-time PCR was performed in LightCycler 480 using a SYBR Green Master Mix (Roche, Mannheim, Germany). β-actin was used as an internal control group. A target gene expression level rate with respect to β-actin was calculated using CT method. A Ct value is defined as a PCR cycle number at which a fluorescence signal reaches a fixed target threshold. Experiments were technically repeated three times for each experiment. […]

T1 sequence (O15379 whole entry, species assumed): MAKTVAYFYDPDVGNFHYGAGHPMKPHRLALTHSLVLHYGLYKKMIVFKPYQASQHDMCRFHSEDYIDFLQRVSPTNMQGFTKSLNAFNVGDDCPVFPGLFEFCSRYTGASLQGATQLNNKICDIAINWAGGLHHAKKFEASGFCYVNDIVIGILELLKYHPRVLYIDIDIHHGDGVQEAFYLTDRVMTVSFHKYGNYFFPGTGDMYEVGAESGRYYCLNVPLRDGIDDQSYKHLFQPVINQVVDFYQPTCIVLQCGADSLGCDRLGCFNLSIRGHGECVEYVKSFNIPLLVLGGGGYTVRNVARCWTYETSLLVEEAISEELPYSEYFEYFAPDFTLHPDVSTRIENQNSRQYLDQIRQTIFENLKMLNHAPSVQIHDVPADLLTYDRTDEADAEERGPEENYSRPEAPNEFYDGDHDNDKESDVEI

B1: sLZIP: human small leucine-zipper protein, isoform of LZIP, 354 amino acids, no transmembrane domain, GenBank FJ263669, SEQ ID NO: 1 (protein, listed as Homo sapiens)
chain: MELELDAGDQDLLAFLLEESGDLGTAPDEAVRAPLDWALPLSEVPSDWEVDDLLCSLLSPPASLNILSSSNPCLVHHDHTYSLPRETVSMDLESESCRKEGTQMTPQHMEELAEQEIARLVLTDEEKSLLEKEGLILPETLPLTKTEEQILKRVRRKIRNKRSAQESRRKKKVYVGGLESRVLKYTAQNMELQNKVQLLEEQNLSLLDQLRKLQAMVIEISNKTSSSSMYSSDTRGSLPAEHGVLSRQLRALPSEDPYQLELPALQSEVPKDSTHQWLDGSDCVLQAPGNTSCLLHYMPQAPSAEPPLEWPFPDLFSEPLCRGPILPLQANLTRKGGWLPTGSPSVILQDRYSG
With B1, the solubility result in series [1] was “very soluble”. Further, the “interaction with HDAC3” value with HDAC3 (10 nM RZD for 24 hours) is “remained as being interacted with sLZIP”; with HDAC3 (GST-HDAC3 and Flag-sLZIP, 293T cells, GST pull-down), “interacted with HDAC3”. For the same molecule, in the series with HDAC3 (no RZD treated), the “interaction with HDAC3 in a PPARγ2 corepressor complex” value is reported as “interacted with HDAC3”. In addition, the “expression of chondrocyte differentiation marker genes (Sox9, ColIIIA1)” value in the series with ATDC5 cells is given as “no influence”.
